The text below walks through data of the Immune Epitope Database (IEDB).

By Kd is commonly meant the concentration at which binding is half-saturated.

Some targets named below: HLA-A*30:01; HLA-B*08:01; HLA-A*23:01; HLA-A*29:02; HLA-A*01:01; HLA-A*30:02; HLA-A*26:01; HLA-A*24:02; HLA-A*02:03; HLA-A*31:01; HLA-A*11:01; HLA-A*68:01; HLA-A*03:01.
Experiment in all cases: IEDB peptide-MHC binding, purified MHC/competitive/radioactivity; filed as Kd, often an IC50 or EC50 that approximates it; ≥ and ≤ were set here for values at or beyond the usual limits of such assays
For the next assay, the target named is HLA-A*02:06. The conditions noted are these: source organism: Vaccinia virus WR.
The next assay deals with HLA-A*02:02. To be noted: source organism: Vaccinia virus WR.
The next assay has as its target HLA-B*40:01. To be noted: source organism: Dengue virus 2 Jamaica/1409/1983.
The next assay addresses HLA-A*32:01. To be noted: source organism: Dengue virus 4 Philippines/H241/1956.
For the next assay, the target named is HLA-A*33:01. To be noted: source organism: Vaccinia virus WR.
The mark [1] stands for this setting: source organism: Vaccinia virus WR.
The mark [2] stands for this setting: source organism: SARS coronavirus Tor2.
Setting [3] is: source organism: Vaccinia virus Copenhagen.
The mark [4] stands for this setting: source organism: Dengue virus 3 Martinique/1243/1999.
[5] abbreviates: source organism: Dengue virus 4 Philippines/H241/1956.
Setting [6] is: source organism: Dengue virus 3 Singapore/8120/1995.
Where [7] appears, read: source organism: Mammarenavirus whitewaterense.
[8] abbreviates: source organism: Mammarenavirus mopeiaense.
[9] abbreviates: source organism: Lymphocytic choriomeningitis virus (strain Armstrong).

AAKGASMTL: in the assay with HLA-A*30:01 (setting [1]), the Kd came to 0.998 nM.
Consider ALRSRIREL, for which the equilibrium dissociation constant (Kd) with HLA-B*08:01 (setting [1]) stood at 0.455 nM.
Take APALQEAYY: the equilibrium dissociation constant (Kd) was not below 77800 nM with HLA-A*23:01 (setting [2]); 1990 nM in the assay with HLA-A*29:02 (setting [2]); not below 109000 nM in the assay with HLA-A*01:01 (setting [2]); 365 nM with HLA-A*30:02 (setting [2]); not below 65600 nM with HLA-A*26:01 (setting [2]); not below 77600 nM with HLA-A*24:02 (setting [2]).
Turning to DKRMKSLAM, the dissociation constant Kd with HLA-B*08:01 (setting [1]) is 9.85 nM.
For DRRSFFKCF, the Kd with HLA-B*08:01 (setting [3]) is 75.7 nM.
Take ELREIFRRL: the equilibrium dissociation constant (Kd) with HLA-B*08:01 (setting [1]) came to 26.5 nM.
Consider FMYTKHSML, for which the Kd with HLA-A*02:03 (setting [1]) was 0.394 nM; with HLA-A*02:06, 222 nM; with HLA-B*08:01 (setting [1]) it was 0.2 nM; in the assay with HLA-A*02:02 it was 2.4 nM.
For HQHLAIMFK, the Kd with HLA-A*30:01 (setting [1]) is 4.99 nM.
Turning to IENSSVNVSL, the Kd stood at 764 nM in the assay with HLA-B*08:01 (source organism: Dengue virus 2 Jamaica/1409/1983) and 1.59 nM with HLA-B*40:01.
For KADRVIDPRR, the Kd with HLA-A*30:01 (setting [4]) came to 5180 nM.
For the sequence KTFDTEYPK, the Kd was 2800 nM in the assay with HLA-A*32:01; 29.8 nM in the assay with HLA-A*31:01 (setting [5]); 126 nM in the assay with HLA-A*11:01 (setting [5]); 104 nM in the assay with HLA-A*68:01 (setting [5]); 26.1 nM in the assay with HLA-A*03:01 (setting [5]); 80 nM with HLA-A*30:01 (setting [5]).
As to KYKPVYSYV, the equilibrium dissociation constant (Kd) with HLA-A*30:01 (setting [1]) was 0.74 nM.
With LARRPTPKK, the Kd came out at 70.4 nM with HLA-A*31:01 (setting [1]); 431 nM with HLA-A*11:01 (setting [1]); 430 nM with HLA-A*68:01 (setting [1]); 19300 nM with HLA-A*33:01; 185 nM with HLA-A*03:01 (setting [1]); 10.4 nM with HLA-A*30:01 (setting [3]).
In the case of LDESFLGRY, the dissociation constant Kd with HLA-A*23:01 (setting [2]) is not below 77800 nM; with HLA-A*29:02 (setting [2]), 1540 nM; in the assay with HLA-A*01:01 (setting [2]) it was 2610 nM; in the assay with HLA-A*30:02 (setting [2]), 163 nM; with HLA-A*26:01 (setting [2]), 12700 nM; with HLA-A*24:02 (setting [2]) it was not below 77600 nM.
Regarding LFLAFVVFL, the Kd is 1880 nM with HLA-A*23:01 (setting [2]); 7980 nM in the assay with HLA-A*29:02 (setting [2]); 812 nM with HLA-A*01:01 (setting [2]); not below 34300 nM with HLA-A*30:02 (setting [2]); 571 nM with HLA-A*26:01 (setting [2]); not below 29900 nM with HLA-A*24:02 (setting [2]).
Consider LGSLGCKPLT, for which the Kd with HLA-A*30:01 (source organism: Dengue virus 1 Singapore/S275/1990) stood at 1410 nM.
LLVTHYAII: the Kd with HLA-A*02:03 (setting [6]) came to 39.2 nM; with HLA-B*08:01 (setting [6]), 667 nM.
As for LMKMKKKTWL, in the assay with HLA-B*08:01 (setting [5]), the Kd was 24.1 nM.
Regarding LRTTTVSGKL, in the assay with HLA-B*08:01 (setting [4]), the dissociation constant (Kd) was 9540 nM.
In the case of LYLTQDLFL, the Kd was not below 81700 nM in the assay with HLA-A*23:01 (setting [2]); not below 71900 nM with HLA-A*29:02 (setting [2]); not below 20400 nM with HLA-A*01:01 (setting [2]); not below 81100 nM in the assay with HLA-A*30:02 (setting [2]); not below 34000 nM with HLA-A*26:01 (setting [2]); not below 70300 nM in the assay with HLA-A*24:02 (setting [2]).
Take MFISLFMIL: the Kd with HLA-B*08:01 (setting [1]) was 223 nM.
Regarding MSKSHAAYI, in the assay with HLA-A*30:01 (setting [1]), the equilibrium dissociation constant (Kd) came out at 0.227 nM.
With NVMKRINCF, in the assay with HLA-B*08:01 (setting [1]), the Kd was 19.8 nM.
Consider PYIASRSQI, for which the figures for the equilibrium dissociation constant (Kd) with HLA-A*23:01 (setting [7]), with HLA-A*29:02 (setting [7]) and in the assay with HLA-A*24:02 (setting [7]) were 492 nM, not below 78900 nM and 2810 nM, respectively.
As to PYIASRTSIV, the Kd is 1590 nM with HLA-A*23:01 (setting [8]); not below 32600 nM in the assay with HLA-A*29:02 (setting [8]); not below 44500 nM with HLA-A*01:01 (setting [8]); not below 37300 nM with HLA-A*30:02 (setting [8]); not below 69700 nM with HLA-A*26:01 (setting [8]); 2500 nM with HLA-A*24:02 (setting [8]).
As for QFIHFYREPV, the equilibrium dissociation constant (Kd) is not below 69500 nM with HLA-A*23:01 (setting [9]); not below 39400 nM in the assay with HLA-A*29:02 (setting [9]); not below 41300 nM in the assay with HLA-A*01:01 (setting [9]); 5150 nM in the assay with HLA-A*30:02 (setting [9]); not below 69700 nM in the assay with HLA-A*26:01 (setting [9]); not below 70300 nM in the assay with HLA-A*24:02 (setting [9]).
Consider QKQTQRSGVL, for which the dissociation constant (Kd) with HLA-B*08:01 (setting [4]) came to 5800 nM.
For the sequence QYVRSGKDHV, the Kd is not below 50200 nM with HLA-A*23:01 (setting [9]); not below 71400 nM in the assay with HLA-A*29:02 (setting [9]); not below 70400 nM with HLA-A*01:01 (setting [9]); 1440 nM with HLA-A*30:02 (setting [9]); not below 69700 nM with HLA-A*26:01 (setting [9]); not below 70300 nM with HLA-A*24:02 (setting [9]).
